Patent US12662676B2, “Aptamer nucleic acid molecule, and complex and application thereof” (EAST CHINA UNIVERSITY OF SCIENCE AND TECHNOLOGY, priority 2019, dated 2026)

Columns and labels:
[1] = system: BY4741 strain expressing F30-Pepper-1; assay: Labeling of yeast RNA; type: cell-based; details: 2 μM III-3 in PBS, 10 hours after galactose induction
Text: In order to test the effect of Pepper-III-3 in yeast, a yeast expression plasmid expressing F30-Pepper-1 was constructed. The F30-Pepper-1 DNA fragment in Example 2 was amplified using primers, and the amplified F30-Pepper-1 fragment was inserted into the pYES2.1TOPO TA vector according to the commonly used experimental method (4). The obtained recombinant plasmid was named pYES2.1-F30-Pepper-1.
The recombinant plasmid pYES2.1-F30-Pepper-1 was transformed into BY4741 strain, and a single clone was picked and cultured at 30° C. to an OD600=0.1 before addition of 1 mM galactose to induce the expression of F30-Pepper-1. 10 hours after induction, the yeast cells were harvested and resuspended in PBS containing 2 μM III-3. The untreated BY4741 strain was used as the control.

[2] = system: BL21(DE3, Star) E. coli strain expressing F30-Pepper-1; assay: Labeling of bacterial RNA; type: cell-based; details: 2 μM III-3 in PBS, 4 hours after IPTG induction
Text: In order to test the effect of Pepper-III-3 in bacteria, a bacterial expression plasmid expressing F30-Pepper-1 was constructed. Primers were used to amplify F30-Pepper-1 in Example 2. Primers were used to amplify pET28a to remove the promoter and multiple cloning site regions. The obtained F30-Pepper-1 fragment and the linearized pET28a were ligated according to the commonly used experimental method (4). The obtained recombinant plasmid was named pET28a-T7-F30-Pepper-1.
The recombinant plasmid pET28a-T7-F30-Pepper-1was transformed into BL21(DE3, Star) E. coli strain. A single clone was picked and cultured at 37° C. to an OD600 around 0.2 before addition of 1 mM IPTG to induce the expression of F30-Pepper-1. 4 hours after induction, the bacteria were harvested and resuspended in PBS solution containing 2 μM III-3. BL21 (DE3, Star) E. coli transformed with pET28a empty vector was used as the control.

[3] = Thermostability of Pepper (fluorescence after 5 minutes at different temperatures); type: physicochemical; details: 1 μM aptamer with 10 μM fluorophore (III-3 for F30-Pepper-1, DFHBI-1T for F30-Broccoli), 5 minutes at each temperature
Experimental: In order to test the thermostability of Pepper, 10 μM III-3 was incubated with 1 μM F30-Pepper-1, and then was placed at different temperatures for 5 minutes before the fluorescence was determined. 10 μM DFHBI-1T was incubated with 1 μM F30-Broccoli to be as the control.

[4] = RNA extraction and purification with Mal-III-3 beads, in-gel fluorescence; details: gel incubated with 5 μM III-3 for 30 min
Experimental: In order to use Pepper for RNA extraction and purification, the pCDNA3.1 hygro(+)-TagBFP-4Pepper-7 and pCDNA3.1 hygro(+)-mCherry-4Pepper-7 plasmids in Example 12 were transfected into COS-7 cells, respectively. 24 hours after transfection, the cells were collected and the total RNA of the cells was extracted using the Easyp Super Total RNA Extraction Kit (Promega). The extracted total RNA was dissolved in buffer containing 40 mM HEPES, pH 7.4, 125 mM KCl, 5 mM MgCl2. The RNA was incubated at 70° C. for 10 min and placed at room temperature for more than 30 min.
500 μL activated Thiol Sepharose 4B (GE Healthcare) was washed twice with 500 μL PBS, and then was incubated with PBS containing 10 mM TCEP (Sigma) for 1 h at room temperature. After washing twice with 500 μL PBS, maleamide conjugated III-3 fluorophore (Mal-III-3) was added to react for 30 min at room temperature, and was washed three times with 500 μL PBS. The treated total RNA was incubated with the treated beads at room temperature. After 30 minutes, the mixture was centrifuged at 4000 rpm for 2 minutes, and the supernatant was discarded. […]
The recovered RNA was validated by electrophoresis. The gel was incubated with buffer containing 5 μM III-3 in 40 mM HEPES, pH 7.4, 125 mM KCl, and 5 mM MgCl2 for 30 min, and the fluorescence of 4Pepper-III-3 in the gel was detected.

[5] = Native PAGE oligomerization identification; details: F30-Broccoli and F30-2dBroccoli as controls
Text: In order to detect whether Pepper binds to III-3 in the form of monomer or polymer, F30-Pepper-1 was identified by the Native PAGE using the monomeric F30-Broccoli (SEQ ID NO: 4) and F30-2dBroccoli (SEQ ID NO: 5) (Filonov et al. Journal of the American Chemical Society 2014. 136: 16299-16308; Filonov et al. Chemistry & biology 2015. 22: 649-660) as the controls. The fluorescence imaging result was compared with the staining result by SYBR Gold (universal nucleic acid dye that was purchased from Invitrogen).

[6] = Binding constant of Pepper and III-3; details: 2 nM F30-Pepper-1 with different concentrations of III-3
Experimental: In order to detect the binding constant of Pepper and III-3, 2 nM F30-Pepper-1 was incubated with different concentrations of III-3 and their fluorescence was determined.

[7] = Fluorescence activation of III-3 fluorophore by Pepper aptamers and mutants; type: biochemical; details: 1 μM III-3 with 5 μM RNA
Experimental: Preparation of Pepper or Pepper mutant aptamer according to the commonly used experimental method (1). 5 μM aptamer and 1 μM fluorophore were incubated in the detection buffer (40 mM HEPES, pH 7.4, 125 mM KCl, 5 mM MgCl2, 5% DMSO). The maximal excitation and emission peaks of the aptamer-fluorophore complexes were determined using a Synergy Neo2 multifunctional microplate reader. The fluorescence intensities of the aptamer-fluorophore complexes at the maximal excitation and emission peaks were determined using a Synergy Neo2 multifunctional microplate reader. The control sample (1 μM fluorophore without aptamer) was also measured under the same conditions. Then the ratios of fluorescence intensity were calculated. For example, the fluorescence maximal excitation and emission peaks of the complex of 5 μM F30-Pepper-2 and 1 μM III-3 fluorophore are 485 nm and 530 nm, respectively. The fluorescence intensity of the complex at 485±10 nm excitation and 530 nm±10 nm emission was 36,000, the fluorescence intensity of the control sample (1 μM III-3 fluorophore only) under the same detection conditions was 10. Thus, the activation ratio of F30-Pepper-2 aptamer on III-3 fluorophore was 3,600-fold.
In order to detect the fluorescence activation of III-3 fluorophore by different Pepper mutant, the Pepper-1 sequence in F30-Pepper-1 was mutated according to Table 1. […] 1 μM III-3 was incubated with […] RNA and their fluorescence activation folds were determined according to the commonly used experimental method (5). […] In summary, many Pepper mutants containing single and multiple mutants still retain the ability to activate the fluorescence of III-3 fluorophore.
In order to detect the activation of III-3 by modified Pepper, base-modified Pepper-3 was synthesized (SEQ ID NO: 6, the underlined nucleotides in […] GGCC contain deoxyribonucleotide bases) and Pepper-4 (SEQ ID NO: 7, the underlined nucleotides in […] GGGCC contain 2′-F modification) (synthesized by Shanghai GenePharma Co., Ltd), which contain deoxyribonucleotides replacement (shaded bases in FIG. 5A) or 2′-F modification (shaded bases in FIG. 5B) in the stem-loop region of Pepper. Detection of the fluorescence activation of III-3 fluorophore by these modified Peppers was carried out according to the commonly used experimental method (5).

For CN(CCO)c1ccc(/C=C(\C#N)c2ccc(C#N)cc2)cc1 [III-3], which “RNA labeling in yeast cells” value [1] is on record?
Its value is “bright yellow-green fluorescence only when F30-Pepper-1 was expressed and in the presence of III-3”.

What about the “fluorescent labeling of RNA in bacteria” value [2] of the same molecule?
Its value is “bright yellow-green fluorescence only when F30-Pepper-1 was expressed and in the presence of III-3”.

B1: F30-Broccoli: reported monomeric Broccoli aptamer in F30 scaffold, SEQ ID NO: 4, control (nucleic acid)
chain: UUGCCAUGUGUAUGUGGGUUCGCCCACAUACUCUGAUGAUCCAGACGGUCGGGUCCAGAUAUUCGUAUCUGUCGAGUAGAGUGUGGGCUGGAUCAUUCAUGGCAA
modifications: listed as RNA, further chemistry not given here
Which Tm [3] does the source give for B1 here?
The Tm was 48 °C.

B2: TagBFP-4Pepper: TagBFP mRNA fused with 4Pepper-7, SEQ ID No: 27 (nucleic acid)
chain: AUGAGCGAGCUGAUUAAGGAGAACAUGCACAUGAAGCUGUACAUGGAGGGCACCGUGGACAACCAUCACUUCAAGUGCACAUCCGAGGGCGAAGGCAAGCCCUACGAGGGCACCCAGACCAUGAGAAUCAAGGUGGUCGAGGGCGGCCCUCUCCCCUUCGCCUUCGACAUCCUGGCUACUAGCUUCCUCUACGGCAGCAAGACCUUCAUCAACCACACCCAGGGCAUCCCCGACUUCUUCAAGCAGUCCUUCCCUGAGGGCUUCACAUGGGAGAGAGUCACCACAUACGAAGACGGGGGCGUGCUGACCGCUACCCAGGACACCAGCCUCCAGGACGGCUGCCUCAUCUACAACGUCAAGAUCAGAGGGGUGAACUUCACAUCCAACGGCCCUGUGAUGCAGAAGAAAACACUCGGCUGGGAGGCCUUCACCGAGACGCUGUACCCCGCUGACGGCGGCCUGGAAGGCAGAAACGACAUGGCCCUGAAGCUCGUGGGCGGGAGCCAUCUGAUCGCAAACAUCAAGACCACAUAUAGAUCCAAGAAACCCGCUAAGAACCUCAAGAUGCCUGGCGUCUACUAUGUGGACUACAGACUGGAAAGAAUCAAGGAGGCCAACAACGAGACCUACGUCGAGCAGCACGAGGUGGCAGUGGCCAGAUACUGCGACCUCCCUAGCAAACUGGGGCACAAGCUCAAUUAACACUCGCUAGAGCAUGGUUGGUACCGUAGUCAAGCUUCCCACGGAGGAUCCCCAAUCGUGGCGUGUCGGCCUCUCCCAAUCGUGGCGUGUCGGCCUCUCCCAAUCGUGGCGUGUCGGCCUCUCCCAAUCGUGGCGUGUCGGCCUCUCUUCGGAGAGGCACUGGCGCCGGAGAGGCACUGGCGCCGGAGAGGCACUGGCGCCGGAGAGGCACUGGCGCCGGGAUCCUCCGUGGG
Which “in-gel fluorescence of recovered RNA” value [4] does the source give for B2 here?
The value was “bright Pepper-III-3 fluorescence signals”.

B3: F30-Pepper-1: RNA aptamer, Pepper-1 in F30 scaffold RNA, SEQ ID NO: 2 (nucleic acid)
chain: UUGCCAUGUGUAUGUGGGUUCGCCCACAUACUCUGAUGAUCCCCAAUCGUGGCGUGUCGGCCUGCUUCGGCAGGCACUGGCGCCGGGAUCAUUCAUGGCAA
modifications: RNA, backbone not given here
Which results are given for B3?
form in which aptamer binds III-3 (monomer or polymer) [5]: monomer; Kd [6]: 3.5 nM; Tm [3]: 55 °C; Activation folds ([7]; Activation of III-3 by Pepper mutants with multiple mutations): 3600 folds; Activation folds ([7]; Activation of III-3 by Pepper mutants with single mutation): 3600 folds

B4: mCherry-4Pepper: mCherry mRNA fused with 4Pepper-7, SEQ ID No: 26 (nucleic acid)
chain: AUGGUGAGCAAGGGCGAGGAGGAUAACAUGGCCAUCAUCAAGGAGUUCAUGCGCUUCAAGGUGCACAUGGAGGGCUCCGUGAACGGCCACGAGUUCGAGAUCGAGGGCGAGGGCGAGGGCCGCCCCUACGAGGGCACCCAGACCGCCAAGCUGAAGGUGACCAAGGGUGGCCCCCUGCCCUUCGCCUGGGACAUCCUGUCCCCUCAGUUCAUGUACGGCUCCAAGGCCUACGUGAAGCACCCCGCCGACAUCCCCGACUACUUGAAGCUGUCCUUCCCCGAGGGCUUCAAGUGGGAGCGCGUGAUGAACUUCGAGGACGGCGGCGUGGUGACCGUGACCCAGGACUCCUCCCUGCAGGACGGCGAGUUCAUCUACAAGGUGAAGCUGCGCGGCACCAACUUCCCCUCCGACGGCCCCGUAAUGCAGAAGAAGACCAUGGGCUGGGAGGCCUCCUCCGAGCGGAUGUACCCCGAGGACGGCGCCCUGAAGGGCGAGAUCAAGCAGAGGCUGAAGCUGAAGGACGGCGGCCACUACGACGCUGAGGUCAAGACCACCUACAAGGCCAAGAAGCCCGUGCAGCUGCCCGGCGCCUACAACGUCAACAUCAAGUUGGACAUCACCUCCCACAACGAGGACUACACCAUCGUGGAACAGUACGAACGCGCCGAGGGCCGCCACUCCACCGGCGGCAUGGACGAGCUGUACAAGUAACUCGCUAGAGCAUGGUUAAGCUUCCCACGGAGGAUCCCCAAUCGUGGCGUGUCGGCCUCUCCCAAUCGUGGCGUGUCGGCCUCUCCCAAUCGUGGCGUGUCGGCCUCUCCCAAUCGUGGCGUGUCGGCCUCUCUUCGGAGAGGCACUGGCGCCGGAGAGGCACUGGCGCCGGAGAGGCACUGGCGCCGGAGAGGCACUGGCGCCGGGAUCCUCCGUGGG
Which “in-gel fluorescence of recovered RNA” value [4] does the source give for B4 here?
The value was “bright Pepper-III-3 fluorescence signals”.
